This is an account of results in US20120220538A1 (UNIVERSITY OF LOUISVILLE RESEARCH FOUNDATION, published 2012).

One assay deals with human histone 3.3 (human, UniProt P84243 2-136). The assay is described as follows: in vitro histone binding assay, histone coated on plate, anti-lunasin polyclonal antibody + HRP secondary, A450.
Another assay deals with human histone 4 (human, UniProt P62805 2-103). Described as above.

B1: soybean-derived lunasin (lunasin purified from soybean white flake) (peptide)
peptide: SKWQHQQDSCRKQLQGVNLTPCEKHIMEKIQGRGDDDDDDDDDN
notes: Purified from soybean white flake and released from the lunasin-containing complex with a reducing agent; also called purified lunasin; highly purified soybean-derived lunasin
Turning to B1, the binding result in the assay with human histone 3.3 and with human histone 4 was “binds” throughout.

B2: synthetic lunasin (peptide)
peptide: SKWQHQQDSCRKQLQGVNLTPCEKHIMEKIQGRGDDDDDDDDD
notes: Made by peptide synthesis; It is the 43-residue published form of lunasin; also called synthetic lunasin created by peptide synthesis
As for B2, the binding result in the assay with human histone 3.3 and with human histone 4 was “binds” each time.
